# From patent US20200131274A1 (CRESCENDO BIOLOGICS, published 2020)
# B1: 1.1-6GS-2.1 (bispecific antibody)
# chain: EVQLLESGGGLVQPGGSLRLSCAASGFSFSSYAMSWVRQAPGKGLEWVSSIGENDGTTDYADSVKGRFTISRDNSKSMLYLQMNSLRVEDTAVYYCVKDGVHWGQGTLVTVSSGGGGSGGGGSGGGGSGGGGSGGGGSGGGGSEVQLVESGGGVVQPGRSLRLSCAASGFSFSGYGMHWVRQAPGKGLEWVAYISYDGSNKYYADSVKGRFTISRDNSKNTLYLQMNSLRAEDTAVYYCAKDPAWGLRLGESSSYDFDIWGQGTMVTVSS
# B2: 1.16-6GS-2.15 (bispecific antibody)
# chain: EVQLLESGGGLVQPGGSLRLSCAASGFSFSSYALSWVRQAPGKGLEWVSSIGENNHTTDYADTVKGRFTISRDNSKNTLYLQMNSLRVEDTAVYYCVKDGVHWGQGTLVTVSSGGGGSGGGGSGGGGSGGGGSGGGGSGGGGSEVQLVESGGGVVQPGRSLRLSCAASGFSFSGYGLHWVRQAPGKGLEWVAYISYDKSNKYYADKVKGRFTISRDNSKNTLYLQMNSLRAEDTAVYYCAKDPAWGLRLGESSSYDFDIWGQGTMVTVSS
# B3: 1.18-6GS-2.15 (bispecific antibody)
# chain: EVQLLESGGGLVQPGGSLRLSCAASGFSFSSYALSWVRQAPGKGLEWVSSIGENNATTDYAASVKGRFTISRDNSKNTLYLQMNSLRVEDTAVYYCVKDGVHWGQGTLVTVSSGGGGSGGGGSGGGGSGGGGSGGGGSGGGGSEVQLVESGGGVVQPGRSLRLSCAASGFSFSGYGLHWVRQAPGKGLEWVAYISYDKSNKYYADKVKGRFTISRDNSKNTLYLQMNSLRAEDTAVYYCAKDPAWGLRLGESSSYDFDIWGQGTMVTVSS
# B4: 1.1-6GS-2.15 (bispecific antibody)
# chain: EVQLLESGGGLVQPGGSLRLSCAASGFSFSSYAMSWVRQAPGKGLEWVSSIGENDGTTDYADSVKGRFTISRDNSKSMLYLQMNSLRVEDTAVYYCVKDGVHWGQGTLVTVSSGGGGSGGGGSGGGGSGGGGSGGGGSGGGGSEVQLVESGGGVVQPGRSLRLSCAASGFSFSGYGLHWVRQAPGKGLEWVAYISYDKSNKYYADKVKGRFTISRDNSKNTLYLQMNSLRAEDTAVYYCAKDPAWGLRLGESSSYDFDIWGQGTMVTVSS
# B5: 1.1-6GS-2.22 (bispecific antibody)
# chain: EVQLLESGGGLVQPGGSLRLSCAASGFSFSSYAMSWVRQAPGKGLEWVSSIGENDGTTDYADSVKGRFTISRDNSKSMLYLQMNSLRVEDTAVYYCVKDGVHWGQGTLVTVSSGGGGSGGGGSGGGGSGGGGSGGGGSGGGGSEVQLVESGGGVVQPGRSLRLSCAASGFSFSGYGTHWVRQAPGKGLEWVAYISYDGSNKYYAAPVKGRFTISRDNSKNTLYLQMNSLRAEDTAVYYCAKDAAWGLRLGESSSYDFDIWGQGTMVTVSS
# B6: 1.11-6GS-2.15 (bispecific antibody)
# chain: EVQLLESGGGLVQPGGSLRLSCAASGFSFSSYALSWVRQAPGKGLEWVSSIGENNDTTDYADNVKGRFTISRDNSKNTLYLQMNSLRVEDTAVYYCVKDGVHWGQGTLVTVSSGGGGSGGGGSGGGGSGGGGSGGGGSGGGGSEVQLVESGGGVVQPGRSLRLSCAASGFSFSGYGLHWVRQAPGKGLEWVAYISYDKSNKYYADKVKGRFTISRDNSKNTLYLQMNSLRAEDTAVYYCAKDPAWGLRLGESSSYDFDIWGQGTMVTVSS
# B7: 1.1-6GS-2.17 (bispecific antibody)
# chain: EVQLLESGGGLVQPGGSLRLSCAASGFSFSSYAMSWVRQAPGKGLEWVSSIGENDGTTDYADSVKGRFTISRDNSKSMLYLQMNSLRVEDTAVYYCVKDGVHWGQGTLVTVSSGGGGSGGGGSGGGGSGGGGSGGGGSGGGGSEVQLVESGGGVVQPGRSLRLSCAASGFSFSGYGMHWVRQAPGKGLEWVAYISYDASNKYYADNVKGRFTISRDNSKNTLYLQMNSLRAEDTAVYYCAKDPAWGLRLGESSSYDFDIWGQGTMVTVSS
# B8: HiPEG C-His6 val-cit-PAB-MMAE (VHH)
# VHH: EVQLVESGGGVVQPGRSLRLSCAASGFPLISYGMHWVRQAPGKGLEWVAFMTYDGSNRYYADSVKGRFTISRDNSKNTLYLQMNSLRDEDTALYYCARDRIVGGRVPDAFDIWGQGTMVTVSS
# modifications: HiPEG val-cit-PAB-MMAE attached via the C-terminal His6-tag, DAR 1
# B9: HiPEG A-1-B-His6 val-cit-PAB-MMAE (bispecific antibody)
# chain: EVQLVESGGGVVQPGRSLRLSCAASGFSFSGYGMHWVRQAPGKGLEWVAYISYDGSNKYYADSVKGRFTISRDNSKNTLYLQMNSLRAEDTAVYYCAKDPAWGLRLGESSSYDFDIWGQGTMVTVSSGGGGSGGGGSEVQLLESGGGLVQPGGSLRLSCAASGFSFSSYAMSWVRQAPGKGLEWVSSIGENDGTTDYADSVKGRFTISRDNSKSMLYLQMNSLRVEDTAVYYCVKDGVHWGQGTLVTVSS
# modifications: HiPEG val-cit-PAB-MMAE attached via the C-terminal His6-tag, DAR 1
# B10: HiPEG C-2-C-His6 val-cit-PAB-MMAE (VHH)
# chain: EVQLVESGGGVVQPGRSLRLSCAASGFPLISYGMHWVRQAPGKGLEWVAFMTYDGSNRYYADSVKGRFTISRDNSKNTLYLQMNSLRDEDTALYYCARDRIVGGRVPDAFDIWGQGTMVTVSSGGGGSGGGGSGGGGSGGGGSGGGGSGGGGSEVQLVESGGGVVQPGRSLRLSCAASGFPLISYGMHWVRQAPGKGLEWVAFMTYDGSNRYYADSVKGRFTISRDNSKNTLYLQMNSLRDEDTALYYCARDRIVGGRVPDAFDIWGQGTMVTVSS
# modifications: HiPEG val-cit-PAB-MMAE attached via the C-terminal His6-tag, DAR 1
# B11: single VH domain antibody 6.1 (VHH)
# VHH: QVQLQESGPGLVKPSQTLSLTCTVSGGSISNSGYYWSWVRQHPGKDLEWIGFIYYNGSIHYNPSLKSRVIISVDTSKNQFSLKMNSVTAADTAVYYCARDGDDYGDYLRGQGTLVTVSS
# notes: Human single VH domain antibody (Humabody); purified via the C-terminal His-tag, residues not tied
# B12: single VH domain antibody 11.1 (VHH)
# VHH: EVQLVESGGGLVKPGGSLRLSCAASGFNLISYGMYWVRQAPGKGLEWVAVISYDGSNKNYADSVKGRFTISRDNSKNTLFLQMNSLRVEDTAVYYCAKGGNALYSSGWPDDGFDIRGQGTMVTVSS
# notes: as for B11
# B13: single VH domain antibody 4.1 (VHH)
# VHH: QVQLVESGGGVVQPGRSLRLSCVASGFPFISYGMHWVRQAPGKGREWVAVISYDGSNRYYADSVKGRFTISRDNSKNTLYLQMNSLRPEDTAVYYCAKERIFGVLTPDDFDIWGQGTTVTVSS
# notes: as for B11
# B14: single VH domain antibody 13.1 (VHH)
# VHH: EVQLVESGGGSVQPGGSLRLSCAASGFTFSDYWMTWVRQVPGKGLEWVANIKQDGSEKYYVDSVKGRFTISRDNAKNSLYLQMNSLRAEDTAVYYCARDRGGAVALYHNGMDMGGQGTTVTVSS
# notes: as for B11
# B15: single VH domain antibody 12.1 (VHH)
# VHH: QVQLVESGGGVVQPGRSLRLSCAASGFTFSNFGMHWARQAPGKGLEWVAVISYDGNSKYYADTVKGRFTISRDNSKNTLYLEMNSLRADDTAVYYCAKGLWPPMDVRGQGTTVTVSS
# notes: as for B11
# B16: single VH domain antibody 10.1 (VHH)
# VHH: QVQLVESGGGLVQPGGSLRLSCAASGFTFSSYGMHWVRQAPGKGLEWVAFMSYDGSNKYYVDSVKGRFTISRDNSKNTLYLQMNSLRAEDTAVYYCAKGDYDFWSGYPDYDMDVWGQGTTVTVSS
# notes: as for B11
# Target: cynomolgus PSMA, full-length, on CHO cells (cynomolgus, UniProt A0A2K5VNZ0 1-750)
# Experiment: cell-based or functional assay
row,Binder,"His-ZAP cell killing, cyno PSMA Average EC50"
1,B1,0.012 nM
2,B2,0.011 nM
3,B3,0.01 nM
4,B4,0.0086 nM
5,B5,0.0078 nM
6,B6,0.009 nM
7,B7,0.011 nM

# Target: human prostate specific membrane antigen (PSMA), full-length, on cells (human, UniProt Q04609 1-750)
# Sequence (Q04609 whole entry): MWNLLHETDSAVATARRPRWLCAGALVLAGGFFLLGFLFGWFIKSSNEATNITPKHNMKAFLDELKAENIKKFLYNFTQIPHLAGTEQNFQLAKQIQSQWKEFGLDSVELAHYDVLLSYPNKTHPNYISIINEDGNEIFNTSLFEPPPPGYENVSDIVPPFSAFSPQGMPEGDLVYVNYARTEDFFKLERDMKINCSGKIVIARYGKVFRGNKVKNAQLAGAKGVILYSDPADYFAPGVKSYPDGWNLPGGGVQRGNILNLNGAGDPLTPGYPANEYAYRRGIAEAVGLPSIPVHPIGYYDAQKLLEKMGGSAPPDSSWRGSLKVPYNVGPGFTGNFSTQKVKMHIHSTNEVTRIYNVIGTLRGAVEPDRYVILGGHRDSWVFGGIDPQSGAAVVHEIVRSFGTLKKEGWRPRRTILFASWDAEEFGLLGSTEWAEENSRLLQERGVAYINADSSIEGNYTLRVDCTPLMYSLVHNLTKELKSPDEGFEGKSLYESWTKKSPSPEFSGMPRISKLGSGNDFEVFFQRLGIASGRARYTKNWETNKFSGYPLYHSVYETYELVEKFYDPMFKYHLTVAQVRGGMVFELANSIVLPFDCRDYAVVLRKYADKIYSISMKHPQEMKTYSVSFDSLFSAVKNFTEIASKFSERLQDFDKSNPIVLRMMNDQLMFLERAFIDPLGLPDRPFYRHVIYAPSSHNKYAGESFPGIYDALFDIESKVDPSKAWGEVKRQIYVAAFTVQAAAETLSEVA
# Experiment: cell-based or functional assay
Binder,"IC50 Toxin (nM), DU145 PSMA cells, 48 h","Mean IC50, cytotoxicity on DU145 PSMA cells, 48 h","Mean Max % Cell kill, DU145 PSMA cells, 48 h"
B8,5.21 nM,5.2 nM,59%
B9,0.67 nM,0.67 nM,75%
B10,4.54 nM,4.5 nM,69%

# Target: T1, recombinant human PSMA (R&D, cat. no. 4234-ZN) (human, UniProt Q04609 44-750)
# T1 construct: Bought protein; also called rhPSMA; Recombinant PMSA
# T1 sequence (Q04609 44-750 limits assumed): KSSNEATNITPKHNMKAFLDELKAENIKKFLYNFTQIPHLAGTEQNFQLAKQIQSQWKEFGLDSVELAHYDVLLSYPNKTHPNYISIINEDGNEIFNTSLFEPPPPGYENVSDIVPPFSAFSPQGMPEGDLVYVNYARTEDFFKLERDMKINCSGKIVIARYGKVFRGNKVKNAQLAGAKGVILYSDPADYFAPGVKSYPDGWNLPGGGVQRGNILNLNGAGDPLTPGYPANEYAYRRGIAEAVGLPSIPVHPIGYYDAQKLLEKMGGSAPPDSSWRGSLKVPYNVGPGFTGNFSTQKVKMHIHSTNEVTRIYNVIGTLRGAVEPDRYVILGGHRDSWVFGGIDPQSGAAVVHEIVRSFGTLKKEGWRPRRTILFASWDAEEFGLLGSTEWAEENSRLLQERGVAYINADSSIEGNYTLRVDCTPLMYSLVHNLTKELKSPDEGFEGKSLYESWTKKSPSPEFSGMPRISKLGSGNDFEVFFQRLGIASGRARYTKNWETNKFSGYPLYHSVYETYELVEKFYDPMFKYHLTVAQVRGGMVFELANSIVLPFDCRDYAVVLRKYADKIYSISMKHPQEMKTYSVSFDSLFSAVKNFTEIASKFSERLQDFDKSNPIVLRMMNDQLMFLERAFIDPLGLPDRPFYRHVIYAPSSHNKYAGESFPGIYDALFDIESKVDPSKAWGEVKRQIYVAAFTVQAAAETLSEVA
# Experiment: Octet RED384 BLI, PSMA on sensor, VH purified from periplasmic extracts
Binder,Kd,koff
B11,16 nM,0.00365 s⁻¹
B12,26 nM,0.00149 s⁻¹
B13,45 nM,0.014 s⁻¹
B14,4.2 nM,0.0006 s⁻¹
B15,3.9 nM,0.00137 s⁻¹
B16,95 nM,0.00185 s⁻¹
